Reference: article PMC2910265

Biological target: MglA^+ of Thermus thermophilus (Thermus thermophilus)
Assay: fluorescence polarisation

fold higher affinity for MglA^+/mGppNHp than for MglA^+/GDP: 60 fold
Substance: MglB of Thermus thermophilus (natural protein)
